According to patent publication EP4810052A2 (Gubra A/S, dated 2026):
Like-named read-outs stand apart in the source and are kept apart here. Starred links: 1 amine or outer side, 2 acyl side, 3 side chain; linkers in the order of their positions; H or OH if unused. Non-standard residues stand in square brackets, D forms with d. Groups on a side chain read outwards from the residue. No end group written: not given here. *: point of attachment. C20 diacid = O=C(O)CCCCCCCCCCCCCCCCCCC(=O)*; γGlu = O=C(O)[C@H](CCC(=O)[*:2])N[*:1]; NMeI = CC[C@H](C)[C@H](NC)C(=O)O; Nle = CCCC[C@H](N)C(=O)O; lip = not defined here; AEEA = NCCOCCOCC(=O)O; Aib = CC(C)(N)C(=O)O

Key:
Assay in all cases: cell-based or functional assay
[1] = target: T1, human corticotropin-releasing hormone receptor 1 (human, UniProt P34998 24-415)
T1 sequence (looked up): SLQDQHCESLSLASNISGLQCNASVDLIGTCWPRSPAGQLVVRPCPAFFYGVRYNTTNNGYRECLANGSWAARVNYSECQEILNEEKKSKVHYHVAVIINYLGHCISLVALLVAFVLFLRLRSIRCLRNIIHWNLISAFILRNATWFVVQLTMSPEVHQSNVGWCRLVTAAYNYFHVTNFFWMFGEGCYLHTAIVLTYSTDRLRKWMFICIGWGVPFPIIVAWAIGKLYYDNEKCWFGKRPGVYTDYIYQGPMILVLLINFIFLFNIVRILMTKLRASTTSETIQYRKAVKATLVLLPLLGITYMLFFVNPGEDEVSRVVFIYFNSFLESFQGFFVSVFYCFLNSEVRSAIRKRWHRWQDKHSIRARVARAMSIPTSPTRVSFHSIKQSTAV

[2] = target: T1, human corticotropin-releasing hormone …; remark: listed apart in the source
porcine CRH receptor 1 = porcine CRH receptor 1 (pig)
mouse CRH receptor 1 = target: T2, mouse CRH receptor 1 (mouse, UniProt P35347 24-415)
T2 sequence (looked up): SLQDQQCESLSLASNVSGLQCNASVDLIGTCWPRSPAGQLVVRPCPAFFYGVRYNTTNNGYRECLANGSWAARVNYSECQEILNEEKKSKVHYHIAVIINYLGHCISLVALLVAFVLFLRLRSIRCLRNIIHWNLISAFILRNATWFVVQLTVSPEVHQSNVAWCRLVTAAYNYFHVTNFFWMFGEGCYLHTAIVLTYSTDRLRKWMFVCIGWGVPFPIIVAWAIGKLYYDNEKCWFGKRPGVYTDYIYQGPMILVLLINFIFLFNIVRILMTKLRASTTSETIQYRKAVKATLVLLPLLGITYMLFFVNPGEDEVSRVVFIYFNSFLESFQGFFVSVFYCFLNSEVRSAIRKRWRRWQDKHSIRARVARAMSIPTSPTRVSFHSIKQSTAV

rat CRH receptor 1 = target: T3, rat CRH receptor 1 (rat, UniProt P35353 24-415)
T3 sequence (looked up): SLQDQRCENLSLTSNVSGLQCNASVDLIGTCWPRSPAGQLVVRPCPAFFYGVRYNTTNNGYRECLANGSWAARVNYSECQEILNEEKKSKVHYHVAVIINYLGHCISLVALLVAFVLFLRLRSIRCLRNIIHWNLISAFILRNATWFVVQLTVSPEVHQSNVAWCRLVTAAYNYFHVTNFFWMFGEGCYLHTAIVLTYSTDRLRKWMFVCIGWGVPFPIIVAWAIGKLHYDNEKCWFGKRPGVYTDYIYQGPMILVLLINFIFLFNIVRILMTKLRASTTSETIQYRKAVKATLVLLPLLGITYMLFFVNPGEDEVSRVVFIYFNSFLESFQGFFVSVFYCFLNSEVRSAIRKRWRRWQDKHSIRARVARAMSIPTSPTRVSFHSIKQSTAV

[3] = target: T1, human corticotropin-releasing hormone …; remark: listed apart in the source
[4] = target: T1, human corticotropin-releasing hormone …; remark: listed apart in the source

| Binder | hCRHR1 EC50 (nM); HTRF cAMP assay, CHO-K1 cells stably expressing hCRHR1 [1] [nM] | Stable EC50 (nM), hCRHR1; cAMP assay, stable CHO-K1 cells [2] [nM] | Transient cell system EC50 (nM), hCRHR1; cAMP assay, transiently transfected CHO-K1 cells [2] [nM] | Transient cell system EC50 (nM), pCRHR1; cAMP assay, transiently transfected CHO-K1 cells (porcine CRH receptor 1) [nM] | Transient cell system EC50 (nM), mCRHR1; cAMP assay, transiently transfected CHO-K1 cells (mouse CRH receptor 1) [nM] | Transient cell system EC50 (nM), rCRHR1; cAMP assay, transiently transfected CHO-K1 cells (rat CRH receptor 1) [nM] | hCRHR1 EC50 (nM); HTRF cAMP assay, CHO-K1 cells stably expressing hCRHR1 [3] [nM] | hCRHR1 EC50 (nM); HTRF cAMP assay, CHO-K1 cells stably expressing hCRHR1 [4] [nM] |
| --- | --- | --- | --- | --- | --- | --- | --- | --- |
| [NMeI]VLSLDVPIGLLQILLEQARARAAREQATKNAEILAEV-NH2 (not fully specified (residue 30); printed as [MeI]VLSLDVPIGLLQILLEQARARAAREQAT[K*]NAEILAEV(NH_2); also: lipid and spacer on Lys30 not given here) [SEQ ID NO: 6, [MeI]VLSLDVPIGLLQILLEQARARAAREQAT[K*]NAEILAEV(NH2)] | > 5000 | > 5000 | > 1000 | > 5000 | 71 | 275 | > 5000 | – |
| IVLSLDVPIGLLQILLEQARARAAREQAK(lip)TNAEILAEV-NH2 (not fully specified; reading uncertain) [SEQ ID NO: 3 (Lipidated UCN2 with X^36 = E; X^40 = E) (reference 1)] | > 5000 | > 5000 | > 1000 | > 5000 | 44 | 163 | > 5000 | > 5000 |
| [NMeI]VLSLDVPIGLLQILLSQARARAAREQAK([AEEA-AEEA-γGlu-γGlu-C20 diacid])TN[Aib]EI[Nle]AEV-NH2 (not fully specified; printed as [MeI]VLSLDVPIGLLQILLSQARARAAREQA[K*]TN[Aib]EI[Nle]AEV(NH_2)) [SEQ ID NO: 215, [MeI]VLSLDVPIGLLQILLSQARARAAREQA[K*]TN[Aib]EI[Nle]AEV(NH2)] | – | > 5000 | 826 | > 1000 | 50 | 175 | – | > 5000 |
| [NMeI]VLSLDVPIGLLQILLEQARARAAREQAK(lip)TN[Aib]EILAEV-NH2 (reading uncertain; also: printed as [MeI]VLSLDVPIGLLQILLEQARARAAREQA[K*]TN[Aib]EILAEV(NH2)) [SEQ ID NO: 16, [MeI]VLSLDVPIGLLQILLEQARARAAREQA[K*]TN[Aib]EILAEV(NH2)] | > 5000 | > 5000 | > 1000 | > 5000 | 76 | 256 | – | – |
| PVLSLDVPIGLLQILLSQARARAAREQAK[Aib]NAEI[Nle]AEV-NH2 (not fully specified (residue 29); printed as PVLSLDVPIGLLQILLSQARARAAREQA[K*][Aib]NAEI[Nle]AEV(NH_2); also: lipid and spacer on Lys29 not given here) [SEQ ID NO: 238, PVLSLDVPIGLLQILLSQARARAAREQA[K*][Aib]NAEI[Nle]AEV(NH2)] | – | > 5000 | > 5000 | > 5000 | 323 | > 1000 | – | > 5000 |
